Laboratory results reported in patent US20160053277A1, “Compositions Having Dicamba Decarboxylase Activity and Methods of Use” (PIONEER HI-BRED INTERNATIONAL, INC., priority 2013, published 2016).

Tests used:
[1] = 14C assay with IPTG-induced recombinant E. coli cells: 14CO2 captured from [14C]-carboxyl-labeled dicamba; settings: for decarboxylation activity of dicamba: among the 108 sequences tested, recombinant E. coli cells; for Enzymatic Detection level: dicamba decarboxylation activity of the protein of the given SEQ ID NO, High / Low / No; for Dicamba Decarboxylase Activity: induced recombinant E. coli cells, [14C]-carboxyl-labeled dicamba, 14CO2 capture
[2] = Saturation mutagenesis of SEQ ID NO:109: dicamba decarboxylation activity of point mutants (carbon dioxide released); settings: decarboxylation activity (carbon dioxide released) of point mutant compared with unmutated backbone protein; backbone SEQ ID NO: 109

Molecule | decarboxylation activity of dicamba [1] | Enzymatic Detection level [1] | Dicamba Decarboxylase Activity [1] | Fold Activity [2]
49 (protein, listed as Streptomyces sp.) MAKIIALEEHFSDPAVAKAGAARARALSPGFAASYSPASGLPYSPSPEVLENLAEKRLADMDAGGITMQVLSGLGAQTVPADVAPALVAGSNDKAAAAVRAHPDRFAAFAALPTATPEAAVAELDRSVNELGFVGTLIMGRTEGEFLDAPRFEPILARAAALKVPVFLHPGVPPREITDSNYAAGLPTGIGTRLQTAAWGWHQETAVHFLHLVHSGVLDRYPDLQFILGHWGEMIPFYLDRVDEALPQRATGLDRSFHEYFRENVYLAPSGMWSQAQLRFCLETVPLERIVFAVDYPFIGNEGAVPFLEKAELPQADKRKIAHENAERLLGL | showed decarboxylation activity of dicamba | High | High | 2
54 (protein, listed as Streptomyces sp.) MAKIIALEEHFSDPAVAKAGAARAQALSPGFAASYSPASGLPYSPSPEVLENLAEKRLADMDAGGITMQVLSGLGAQTVPADVAPALVAGSNDKAAAAVRAHPDRFAAFAALPTAAPEAAVAELDRSINELGFVGTLIMGRTEGEFLDAPRFEPILARAAALKVPVFLHPGVPPREITDSNYAAGLPTGIGTRLQTAAWGWHQETAVHFLHLVHSGVLDRYPGLQFILGHWGEMIPFYLDRVDEALPQRATGLDRSFHEYFRENVYLAPSGMWSQAQLRFCLETVPLERIVFAVDYPFIGNEGAVPFLEKAELPEADKRKIAHENAERLLGL | showed decarboxylation activity of dicamba | High | High | 1.4
52 (protein, listed as Streptomyces sp.) MAKIIALEEHFSDPAVAKAGAARAQALSPGFAASYSPASGLPYSPSPEVLENLAEKRLADMDAGGITMQVLSGLSAQTVPADVAPALVAGSNDKAAAAVRAHPDRFAAFAALPTAAPEAAVAELDRSVNELGFVGTLIMGRTEGEFLDAPRFEPILARAAALKVPVFLHPGVPPREITDSNYAAGLPTGIGTRLQTAAWGWHQETAVHFLHLVHSGVLDRYPDLQFILGHWGETIPFYLDRVDEALPQRATGLDRSFHEYFRENVYLAPSGMWSQAQLRFCLETFPLERIVFAVDYPFIGNEGAVPFLEKAELPEADKRKIAHENAERLLGL | showed decarboxylation activity of dicamba | High | High | 1.9
2 (protein, listed as Serratia sp.) MAKIICLEEHTLDKALVMASMPAALEQAPFLSDWGKTVTDGNLPDRSRPQIEKNDLINIKGADIGRGRLDDMDVAGITMQVLSVGGFPHLISAAEGVDLNRAANDRLADAVNAHPDRFAAFATLPWAQPDSAEKELERAVKELGFKGALLNGRPSTHFLDHPDYDGLLARFNALGVPLYLHPGLPVRSVQQAYYGGFSDEVTARLSMFGWGWHHEAGIHLLRLILSGAFDKYPNLQVISGHWGEMLPFWLQRLDDSLPQAATGLRRTIAQTFKEQVYVTPSGMLTLPHFQFIYALLGAERIIFSVDYPYQTLDGVKAFIQSLPVPEEAKEAIAFRNAERLLGLTS | showed decarboxylation activity of dicamba | High | High | 1.1
53 (protein, listed as Granulicella tundricola) MARTITLEEHFVTDSFLRATGAYDKPAPPWLAQLQPKLLDLGDGRIAAMDEAGIDLQVLSLAALGFDALDAATATPLVHDINDELAAAVRANPTRLAAFASLALKDPQSAARELERAIQKLGFRGVLLDGTTDGLFLDDPRFTPVFEAAVALNVPIYLHPAPPPESVFDTYFTGLPEGVGQMLSIAGWGWHAETALHTLRLITNGVFDRYPTLQLIIGHMGEMLPMALARTSKALSHAARLRQPVAAYFQSNIHLTTSGYFTQPPLRCALDVVGIDRLMFSIDYPFSANTLGRDYLTELEQTLTPEDLAKLIHRNAESLLNLS | showed decarboxylation activity of dicamba | High | High | 1.6
46 (protein, listed as Rhodococcus opacus) MARIITLEEHYLDPAIAAASAPLARELSPDFAAAYDPASGLSYTPSAQVLQDLGQRRIADMDTHGISMQVLSCLTTQQVPADVAPDLVRAANDTAAAAVRAHPDRFAAFAALPTTAPDAAATELARCIDDLGFVGTMINGRTDGEFLDAPRFDPILATAAARNVPIYLHPAVPPRATSDSNYAGLAPLVTARLQTSAWGWHQETAVHFLHLVLSGVLDRYPNLQFILGHWGEMIPFYLDRLDEALPQAVTNLDRTISDYVRENVYITPSGMFNQAQLQYCVETLGVDRILYSVDYPFIGNDGAVSFLDEANLPDEAKHQIAHQNTEKLLGL | showed decarboxylation activity of dicamba | High | High | 1.1
47 (protein, listed as Serratia odorifera) MAKIICLEEHTLDKALVMASMPAALAQAPFLSDWGKTITDGNLPDRSRPQIEKNDLINVKGADIGRGRLDDMDEAGITMQVLSVGGFPHLISAAEGVDLNRAANDRLANAVNAHPDRFAAFATLPWAQPDAAEKELERAVKELGFKGALLNGRPSIHFLDHPDYDGLLARFNALGVPLYLHPGLPVRSVQQAYYSGFSDEVTARLSMFGWGWHHEAGIHLLRLILSGAFDKYPNLQVISGHWGEMLPFWLQRLDDSLPQAATGLRRTITQTFREQVYVTPSGMLTLPHFQFIYALLGAERILFSVDYPYQTLDGVKAFIQSLPVPEEAKEAIAFRNAERLFGLTS | showed decarboxylation activity of dicamba | High | High | 1.2
51 (protein, listed as Mycobacterium gilvum) MARVIAIEEHYAHPGLQPAEALANLRKHPQLARIQDKLEDLGAGRLADMDAAGIDMQVLSHTVPGAEALPAAQAVDVVRQTNDDLAEVIAAHPDRFAGFAALPMRDPQAAATELQRAVGTLGFCGAMINGLIEGRFLDHPDFTPLLSTAADLGVPLYLHPSFPPPQVAQIYFGGLPPVLADLLATAGWGWHAETALHVLRLISTGVFDRLPELRVIVGHMGEMIPFALARIDTVLSPMTELRQPVAQYFQTNVWFTTSGYTTFPPLQCALSTVGIDRLIFSVDYPYTDNASARALLDTAPISPVDREKLAHATVEALLRV | showed decarboxylation activity of dicamba | High | High | 1.7
43 (protein, listed as Rhizobium leguminosarum) MAQGKIALEEHFAIPETLQDSAGFVPGDYWTELSARLLDIQDKRLRLMDTHGIEKMILSLNAPAVQAIPDKAKAVEISRRANDFLAEQCVKNPNRFLGFAALPLQDPDAATQELQRCVTTMGFVGALVNGFSQEGDGTTPLYYDLPQYRPFWAEVEKLDVPFYLHPRNPLPQDSRIYAGHSWLMGPTWAFAQETAVHALRLMGSGLFDEHPALRIIVGHMGEGLPYMMWRIDNRNAWVKVEKSYPAKRPIADYFNENFYITTSGNFRTQSLIDAMLEIGADRILFSADWPFENVDHAANWFDSATISEADRLKIGRTNAVSLFKLDR | showed decarboxylation activity of dicamba | High | High | 1
50 (protein, listed as Streptomyces sp.) MARIVTLEEHWTDPAVTAAGMPNLLDHVPGYAAAFDPDTGMPYPRHPELLEDLGAARIADMDRHGITTQVLSLVNTFLPADVAPRLTAAANDAMAAAVEAFPGRFAAFATLPTAVPGAAADELRRCVGELGFVGTMIMGRTDGEFLDQPRFDPILRAASDLSVPVYLHPAPPPVAVSEASYAGGLSPAVSAAFRLAAWGWHQETAVHLLHLVLAGVLDRYPGLQFVLGHWGEFIPFYLDRLDESMPRRMTGLDRTFREYFRDNVFITPSGMFSQAQLRYCADTVGTDRIIHSVDFPMLGNEGAVSFLTDSHLSREDQEKIAHGNADALLGLG | showed decarboxylation activity of dicamba | High | High | 1.7
48 (protein, listed as Amycolatopsis mediterranei) MASMKLYGLEEHFVTADVIEAWRRRDPGLAEPMMKWAVASDITPALLDVDGGRIAAMDDAGIDTTVLSLTTPGLQNLDAAEAVALQAPTNDLIAAAVRRHPGRFQGFATLATSAPAAAADELRRAVTELGLNGALVNANSRGRALDAPGFWDIYEAAEDLRAPVYLHPGVPVPAVTEAYYRGFGEPVNSMLATGAFGWHYDAGLTILRMIVAGVFDRFPGLQVILGHWGEVVLFYLDRVAAMDKLTALRRPIAEYFRSNIFITPGGISSHKYLRWSLETVGVERIMYASDYPFNTERAGSARRFLDTAPVDEAGRERIAYRNWEELIAGIRR | showed decarboxylation activity of dicamba | High | High | 1.5
44 (protein, listed as Mycobacterium avium) MARIITVEEHFQHPEVSARVAELTGPAVEGLAEFGNAFSLDPDSTARLGGNRLAHMDQVGIDVQVVSHGNGSPGTLQHPEAVELCRRVNNDLAAQIAENPDRFRGFATLPLYDPAAAAEELRRCVGDLGFVGALIAGSYDGLFLDDERFDPILTAAEAVDFPIYVHPGLPEAPVSQRYYAGSWPASVHMMFSGPAFGWHAEAGIHIVRLILSGALDRHPTLKLLSGHWGELAAFYLERLDETLGLLPTGLERAPSDYYRQQVWITPSGMYNQNQLNFMTAELGAQRIIYSEDFPYVVRDNVSTFLEQAGLSEADTHAIAHTNAEALLRI | showed decarboxylation activity of dicamba | High | High | 0.7
